Data reported in patent US20120164670.

Key:
[1] = molecular target: T1, H3K9ac substrate (TARK(ac)STG)
T1 chain: TARKSTG

[2] = molecular target: Fleur de Lys peptide (BIOMOL)

Chain of DBC1, Q8N163 (Q8N163 whole entry, looked up): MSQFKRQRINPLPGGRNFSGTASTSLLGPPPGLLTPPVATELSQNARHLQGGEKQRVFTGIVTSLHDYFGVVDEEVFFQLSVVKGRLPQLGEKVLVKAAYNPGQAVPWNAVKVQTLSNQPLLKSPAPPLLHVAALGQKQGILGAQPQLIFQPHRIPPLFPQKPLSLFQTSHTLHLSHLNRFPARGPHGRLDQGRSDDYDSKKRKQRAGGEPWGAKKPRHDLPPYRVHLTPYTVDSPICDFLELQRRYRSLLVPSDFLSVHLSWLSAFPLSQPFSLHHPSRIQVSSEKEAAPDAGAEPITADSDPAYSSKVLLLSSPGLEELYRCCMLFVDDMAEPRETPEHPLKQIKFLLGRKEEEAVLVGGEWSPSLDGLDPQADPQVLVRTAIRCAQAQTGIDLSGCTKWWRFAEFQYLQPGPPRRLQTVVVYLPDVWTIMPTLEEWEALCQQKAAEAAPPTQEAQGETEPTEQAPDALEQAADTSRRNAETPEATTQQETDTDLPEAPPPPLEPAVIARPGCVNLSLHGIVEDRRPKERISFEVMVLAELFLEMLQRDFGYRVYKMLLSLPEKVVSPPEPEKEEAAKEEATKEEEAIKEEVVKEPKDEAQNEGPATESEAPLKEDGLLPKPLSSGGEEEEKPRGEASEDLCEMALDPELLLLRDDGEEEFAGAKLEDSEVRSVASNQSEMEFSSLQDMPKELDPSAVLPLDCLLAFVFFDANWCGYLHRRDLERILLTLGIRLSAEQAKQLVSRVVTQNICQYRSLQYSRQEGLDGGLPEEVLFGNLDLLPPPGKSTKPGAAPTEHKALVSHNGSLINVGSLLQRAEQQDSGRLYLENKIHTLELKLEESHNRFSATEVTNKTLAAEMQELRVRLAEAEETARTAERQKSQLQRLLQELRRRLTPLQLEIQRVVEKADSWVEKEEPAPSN

B1: full-length human SIRT1 enzyme (protein)
chain: ADEAALALQPGGSPSAAGADREAASSPAGEPLRKRPRRDGPGLERSPGEPGGAAPEREVPAAARGCPGAAAAALWREAEAEAAAAGGEQEAQATAAAGEGDNGPGLQGPSREPPLADNLYDEDDDDEGEEEEEAAAAAIGYRDNLLFGDEIITNGFHSCESDEEDRASHASSSDWTPRPRIGPYTFVQQHLMIGTDPRTILKDLLPETIPPPELDDMTLWQIVINILSEPPKRKKRKDINTIEDAVKLLQECKKIIVLTGAGVSVSCGIPDFRSRDGIYARLAVDFPDLPDPQAMFDIEYFRKDPRPFFKFAKEIYPGQFQPSLCHKFIALSDKEGKLLRNYTQNIDTLEQVAGIQRIIQCHGSFATASCLICKYKVDCEAVRGDIFNQVVPRCPRCPADEPLAIMKPEIVFFGENLPEQFHRAMKYDKDEVDLLIVIGSSLKVRPVALIPSSIPHEVPQILINREPLPHLHFDVELLGDCDVIINELCHRLGGEYAKLCCNPVKLSEITEKPPRTQKELAYLSELPPTPLHVSEDSSSPERTSPPDSSVIVTLLDQAAKSNDDLDVSESKGCMEEKPQEVQTSRNVESIAEQMENPDLKNVGSSTGEKNERTSVAGTVRKCWPNRVAKEQISRRLDGNQYLFLPPNRYIFHGAEVYSDSEDDVLSSSSCGSNSDSGTCQSPSLEEPMEDESEIEEFYNGLEDEPDVPERAGGAGFGTDGDDQEAINEAISVKQEVTDMNYPSNKS
Km (stated in the kit protocol for the SIRT1 deacetylation reaction) [1]: final concentration=50 uM (Km)
Km (PNC1-OPT nicotinamide assay, SIRT1 deacetylation) [2]: ˜130.2 uM
SIRT1 activity (PNC1-OPT assay, dose titration of DBC1, H3K9-L peptide substrate) (DBC1, Q8N163): DBC1 concentration inversely correlates with SIRT1 activity
